Source: IntAct's records for PubMed 17889654

B1: Transcriptional coactivator yorkie (Drosophila melanogaster (Fruit fly)), Q45VV3 (parent)
chain: MLTTMSASSNTNSLIEKEIDDEDMLSPIKSNNLVVRVNQDTDDNLQALFDSVLNPGDAKRPLQLPLRMRKLPNSFFTPPAPSHSRANSADSTYDAGSQSSINIGNKASIVQQPDGQSPIAAIPQLQIQPSPQHSRLAIHHSRARSSPASLQQNYNVRARSDAAAANNPNANPSSQQQPAGPTFPENSAQEFPSGAPASSAIDLDAMNTCMSQDIPMSMQTVHKKQRSYDVISPIQLNRQLGALPPGWEQAKTNDGQIYYLNHTTKSTQWEDPRIQYRQQQQILMAERIKQNDVLQTTKQTTTSTIANNLGPLPDGWEQAVTESGDLYFINHIDRTTSWNDPRMQSGLSVLDCPDNLVSSLQIEDNLCSNLFNDAQAIVNPPSSHKPDDLEWYKIN
partner: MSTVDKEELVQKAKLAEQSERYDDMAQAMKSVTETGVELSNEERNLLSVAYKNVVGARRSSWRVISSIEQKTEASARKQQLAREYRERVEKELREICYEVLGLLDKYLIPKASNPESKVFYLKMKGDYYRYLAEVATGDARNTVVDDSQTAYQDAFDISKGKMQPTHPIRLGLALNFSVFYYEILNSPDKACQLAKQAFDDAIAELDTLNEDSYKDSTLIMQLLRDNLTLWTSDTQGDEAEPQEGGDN

Variants of: B1
Conditions: with 1433z_drome 14-3-3zeta

Row | Variant | effect of a mutation on the interaction
1 | S145A | decreasing interaction
